The nanobody polyreactivity screen of Harvey et al. (2022)

Experiment: yeast display, Sf9 membrane polyspecificity reagent, FACS + sequencing; frameworks hold sequencing errors
In short: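 Using colony PCR, genes from sorted yeast display clones were amplified, then sequenced on MiSeq at 2 × 250 and filtered by CDR length. The clones had been stained with 10% biotinylated, detergent-solubilized Sf9 membrane reagent for 1 hour at 4 °C and sorted by FACS into low and high (top ~1%) gates on anti-HA and streptavidin fluorescence. Polyreactivity labels come from the gate of origin.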

Sequence	polyreactivity (PSR sort gate)
QVQLVESGGGLVQAGGSLRLSCAASGRIFVVYAMGWYRQAPGKERELVAAITRSGGRTFYAASVKGRFTISRDNATNTVYLQMYSQKPEDTAVYYCNKVDRFYLRLVYWGQGTQVTVAS	high polyreactivity
QVQLVESGGGLVQAGGSLRLSCAASGRIFVVYAMGWYRQAPGKERELVAAITYGGGSTHYADSVKGRFTISRDNAKNTVYLQINSLIPEDTAVYYCAADLFYHSYGYEYWGQGTQVTVSS	low polyreactivity
QVQLVESGGGLVQAGGSLRLSCAASGRIFVVYAMGWYRQAPGKERELVASITWRGGSTYYADSVKGRFTISRDNAKNTVDLQMNSLKPEDTAVYYCAAELDVYVSIGSRFHFDYCGQGTQVTVSS	low polyreactivity
QVQLVESGGGLVQAGGSLRLSCAASGRIFVWNTMGWYRQAPGKERELVAAITSGGSTTYADSVKGRFTISRDNAKNTVYLQMNSLKPEDTAVYYCNTELDLYHPGDDYWGQGTQVTVSS	high polyreactivity
QVQLVESGGGLVQAGGSLRLSCAASGRIFVWNVMGWYRQAPGKERELVAAITYSGDTTYYADSVKGRFTISRDNAKNTVYLQMNSLKPEDTAFYYCAAVRRGGGVKYDYWGQGTQVTVSS	high polyreactivity
QVQLVESGGGLVQAGGSLRLSCAASGRIFVYNAMGWYRQAPGKERELVAAITRGGSTYYADSVKGRFTISRDNAKNTVYLQMNSLKPEDTAVYYCASDYQRNDFRWYDYWGQGTQVTVSS	low polyreactivity
QVQLVESGGGLVQAGGSLRLSCAASGRIFVYNVMGWYSQAPGKERELVAAISWGTGSTYADSVKGRFTISRANAKNSVYLQMNSLKPEDTAVYYCAADSFIPPYDHWGQGTQVTVSS	low polyreactivity
QVQLVESGGGLVQAGGSLRLSCAASGRIFVYYAMGWYRQAPGKERELVASISYSGASTYYADSVKGRFTISRDNAKNTVYLQMYSLKPEDTAVYYCNTDGDDFFHVIYDYWGQGTQVTVSS	low polyreactivity
QVQLVESGGGLVQAGGSLRLSCAASGRIFVYYAMGWYRQAPGKERELVATITSSDITNDADSVKGRFTISCDNAKNTVYLQMNSLKPEDTAVYYCARDYYVYSSGHVPLDYWGQGTQVTVSS	low polyreactivity
QVQLVESGGGLVQAGGSLRLSCAASGRIFVYYTMGWYRPAPGKERELVAAIRSSGGSTYADSVKGRFTISRDNAKNTVSLQMNSLKPEDTAVYYCNAGYRSWQYRSGLYGDYNYWGQGTQVTVSS	high polyreactivity
QVQLVESGGGLVQAGGSLRLSCAASGRIFVYYVMGWYRQAPGKERELVAAITYSGGSTYYADSVKGRFTISRDNAKNTVYLQMNSLKPEDTAVYYCNKVDAFGIVRLYYWGQGTQVTVSS	low polyreactivity
QVQLVESGGGLVQAGGSLRLSCAASGRIFWAYAMGWYRQAPGKERELVADITSGGSTYYADSVKGRFTISRDNAKNNVYLQMNSLKPEDTAVYYCAVGSKWVDDSPEDEYWGQGTQVTVSS	low polyreactivity
QVQLVESGGGLVQAGGSLRLSCAASGRIFWDNAMGWYRQAAGKEWELVAAISDSVVITYYADSVKGRFTISRDNAKNTVYLQMNSLKPEDTAVYYCAADKRGTVYLSSLWMDYWGQGTQVTVSS	low polyreactivity
QVQLVESGGGLVQAGGSLRLSCAASGRIFWDYAMGWYRQAPGKERELVAVITFSGDSTYYADSVKGRFTISRDYAKNTVYLQMNSLKPEDTAVYYCAAARAIRQFWYVATFEYWGQGTQVTVSS	low polyreactivity
QVQLVESGGGLVQAGGSLRLSCAASGRIFWEYAMGWYRQAPGKERELVAAITWRVGSTYYADSVKGRFTISRDNAKNTVYLQMNSLKPEDTAVYYCVARSQSIRYTYIRSYYWGQGTQVTVSS	low polyreactivity
QVQLVESGGGLVQAGGSLRLSCAASGRIFWFYTMGWYRQAPGKERELVARITTSGGSTYYADSVKGRFTISRDNAKNTVYLQMNSLKPEDTAVYYCAARPRDYHSFSLDYYYWGQGTQVTVSS	high polyreactivity
QVQLVESGGGLVQAGGSLRLSCAASGRIFWGNAMGWYRQAPGKEREFVAGITGIGGRTYYADSVKGRFTISRDNAKNTVYLQMNSLKPEDTAVYYCARTWAVSYGYAMDYWGQGTQVTVSS	low polyreactivity
QVQLVESGGGLVQAGGSLRLSCAASGRIFWGYDMGSYRQAPGKQTEFVAAISSGGGRTYYADSVKGRFTISRDNAKNPVYLPMNSLKPEDTAVYYCNAELNWYYYIHLDYWGQGTQVTVSS	low polyreactivity
QVQLVESGGGLVQAGGSLRLSCAASGRIFWGYTMGWYRQAPGKERELVAAITFRGATTYYADSVKGRFTISRDNAKNTVYLQLNSLKPEDTAVYYCAKRGYASGSKWDYGYWGQGTQVTVSS	high polyreactivity
QVQLVESGGGLVQAGGSLRLSCAASGRIFWGYVMGWYRQAPGKERELVAAISSGGDTHYADSVKGRFTISRDNAKNTVYLQMNSLKPEDTAVYYCAKENQYYDSKVAGVLTGLYDYWGQGTQVTVSS	low polyreactivity
QVQLVESGGGLVQAGGSLRLSCAASGRIFWHNAMGWYRQAPGKERELVAAITGGGSTYYADSVKGRFTISRDNAKNTVYLQMNSLKPEDTAVYYCATLGSLRYYWPGYDYWGQGTQVTVSS	low polyreactivity
QVQLVESGGGLVQAGGSLRLSCAASGRIFWHNAMGWYRQAPGTERELVAAITGGGSTYYADSVKGRFTISRDNAKNTVYLQMNSLKPEDTAVYYCATLGSLRYYWPGYDYWGQGTQVTVSS	low polyreactivity

Sequence	polyreactivity (PSR sort gate)
QVQLVESGGGLVQAGGSLRLSCAASGRIFWHYAMGWYRQAPGKERELVAAISSRGGSTYYADSVKGRFTISRDNAKNTVYLQMNSLKPEDTAVYYCAADRVDGGSYYHSGYWGQGTQVTVSS	high polyreactivity
QVQLVESGGGLVQAGGSLRLSCAASGRIFWLYAMGWYRQAPGKERELVAAITGIGGSTYYADSVKGRFTISRDNAKNTVYLQMNSLKPEDTAVYYCAARYPATYPSMGYWGQGTQVTVSS	low polyreactivity
QVQLVESGGGLVQAGGSLRLSCAASGRIFWPYARGWYRPAPGKERELVAAITSGGSTYYADSVKGRFTISRDNAKNTVYLQMNSLKQEDTAVYYCAKLSSGVSVPVAYGGIKRYNSWGQGTQVTVSS	low polyreactivity
QVQLVESGGGLVQAGGSLRLSCAASGRIFWQYAMGWYRQAPGKERELVAGITYRGGSTYYADSVKGRFTISRDNAKQTVYLLMNSLKPEDTAVYYCAADTYLSSQYSDRYGYDYWGQGTQVTVSS	high polyreactivity
QVQLVESGGGLVQAGGSLRLSCAASGRIFWRNTMGWYRQAPGKERELVAAITRTGGSTYYADSVKGRFTISRDNAKNTVYLQMNSLKPEDTAVYYCAAQQHYGDGYWGQGTQVTVSS	high polyreactivity
QVQLVESGGGLVQAGGSLRLSCAASGRIFWRYAMGWYRQAPGKERELVAAITSGGNTYYADSVKGRFTISRDNAKNTVYLQMNSLKPEDTAVYYCATVFSVQGWYFGMNYWGQGTQVTVSS	low polyreactivity
QVQLVESGGGLVQAGGSLRLSCAASGRIFWRYAMGWYRQAPGKERELVAAITWSVGSTYYADSVKGRFTISRDNAKNTVYLLMNSLKPEDTAVYYCATDVKNVRYRYRYDYWGQGTQVTVSS	low polyreactivity
QVQLVESGGGLVQAGGSLRLSCAASGRIFWSNAMGWYRQAPGKERELVAAIRNTCSTNYADSVKGRFTISRDNAKNTVYLQMISLKPEDTGVYYCAADRASYFTYAYGYWGQGTQVTVSS	high polyreactivity
QVQLVESGGGLVQAGGSLRLSCAASGRIFWSNAMGWYRQAPGKERELVATISSGGRTYYADSVKGRFTISRDNAKNTVYLQMNSLKPEDTAVYYCNATSGYKHAWRSENGYWGQGTQVTVSS	low polyreactivity
QVQLVESGGGLVQAGGSLRLSCAASGRIFWTYAMGWYRQAPGKERELVAAINSSDGTYYADSVKGRFTISRDNAKNTVYLQMNSLKPEDTAVYYCNADRDALVGYDYDYWGQVTQVTVSS	low polyreactivity
QVQLVESGGGLVQAGGSLRLSCAASGRIFWTYAMGWYSQAPGKERELVASITWSGGSTYYADSVKGRFTISRDNAKNTFYLQMNSLKPEDTAVYYCKTDVLAPYDSGYWGQGTQVTVSS	low polyreactivity
QVQLVESGGGLVQAGGSLRLSCAASGRIFWVNAMGWYIQAPGKERELVAVISRGGSTTYADSVKGRFTISRDNEKNTVYLQMNSLKPEDTAVYYCAADAYSHAFLYYGYDYWGQGTQVTVSS	low polyreactivity
QVQLVESGGGLVQAGGSLRLSCAASGRIFWWYSMGWYRQAPVKERELVAAISTGSRTYYADSVKGRFTISRDNAKNTVFLQMNSLKPEDTAVYYCVADGLYSVSRSSIFEYWGQGTQVTVSS	low polyreactivity
QVQLVESGGGLVQAGGSLRLSCAASGRIFWYNAMGWYRPAPGKERELVASITRGNNTYYADSVKGRFTISRDNAKTTVYLQMNSLKPEDTAVYYCAKRYIYRYYWGQGTQVTVSS	high polyreactivity
QVQLVESGGGLVQAGGSLRLSCAASGRIFWYNAMGWYRQAPGKERELVAGITRSGGRTYYADSVKGRFTISRDNAKNTVYLQMNSLKPEDTAVYYCAAAPYARRDYEYWGQGTQVTVSS	high polyreactivity
QVQLVESGGGLVQAGGSLRLSCAASGRIFWYNAMGWYRQAPGKERELVAGITSGGRTNYADSVKGRFTISRDNAKNTVYLQMNSLKPEDTAVYYCAADVPPGEVVTNDYWGQGTQVTVSS	low polyreactivity
QVQLVESGGGLVQAGGSLRLSCAASGRIFWYNAMGWYRQAPGKERELVAVITSGTSTYYADSVKGRFTISRDNAKNTVYVHMNSLKPDDTAVYYCAARYLSRYSERHYYDWGQGTQVTVSS	high polyreactivity
QVQLVESGGGLVQAGGSLRLSCAASGRIFWYNAMGWYRQAPGKERGLVAVISTRGGRTYYADSVKGRFTISRDNAKNTVYLQMNSLKPEDTAVYYCAAEFLNKAVGGVTSIYDSWGQGTQVTVSS	low polyreactivity
QVQLVESGGGLVQAGGSLRLSCAASGRIFYAYTMGWYRQAPGKERELVAAISGSGSTYYADSVKGRFTISRDNAKNNVYLQMNSLKPEDTAVYYCAKRYRFHFWGQGTQVTVSS	low polyreactivity
QVQLVESGGGLVQAGGSLRLSCAASGRIFYAYTMGWYRQAPGKERELVAAISGSGSTYYADSVKGRFTISRDNAKNTVYLQMNSLKPEDTAVYYCAADVTGGRKYDYWGQGTQVTLSS	low polyreactivity
QVQLVESGGGLVQAGGSLRLSCAASGRIFYAYTMGWYRQAPGKESELVAAIRYGGGSTYYADSVKGRFTISRDNAKNTVYLLMNSLIPEDTAVYYCARDRYNLYSRSYYWGQGTQVTVSS	low polyreactivity
